In assay [1] the target is D3H44 light chain Q124E_Q160E_T178D. Put plainly: LCCA (SPR), competitor L2 Q160K_T178R.
Assay [2] has as its target D3H44 light chain Q160K_T178R (Table 8). As to the kind of experiment: LCCA (SPR), competitor L1 Q124E_Q160E_T178D.
The target is the same in assay [3]. Put plainly: LCCA: H1 co-expressed with L1 and L2, SPR read-out of light chain tags; competing chain L1.
Assay [4] deals with D3H44 light chain Q124E_Q160E_T178D. As to the kind of experiment: LCCA: H1 co-expressed with L1 and L2, SPR read-out of light chain tags; competing chain L2.
Assay [5] addresses D3H44 light chain Q124R_Q160K_T178R. Put plainly: LCCA: H1 co-expressed with L1 and L2, SPR read-out of light chain tags; competing chain L1.
The target is the same in assay [6]. As to the kind of experiment: LCCA: H2 co-expressed with L1 and L2, SPR read-out of light chain tags; competing chain L1.
Assay [7] concerns the target D3H44 light chain Q124E_Q160E_T178D. Put plainly: LCCA: H2 co-expressed with L1 and L2, SPR read-out of light chain tags; competing chain L2.
Assay [8] has as its target D3H44 light chain Q124E_V133W_Q160E_T180E. Put plainly: LCCA (SPR), competitor L2 V133A_Q160K_T178R.
The target of assay [9] is D3H44 light chain V133A_Q160K_T178R. As to the kind of experiment: LCCA (SPR), competitor L1 Q124E_V133W_Q160E_T180E.
Assay [10] has the same target. Put plainly: LCCA: H2 co-expressed with L1 and L2, SPR read-out of light chain tags; competing chain L1.
Assay [11] has as its target D3H44 light chain Q124E_V133W_Q160E_T180E. As to the kind of experiment: LCCA: H2 co-expressed with L1 and L2, SPR read-out of light chain tags; competing chain L2.
The target of assay [12] is D3H44 light chain Q160K_T178R (Table 8). As to the kind of experiment: LCCA: H2 co-expressed with L1 and L2, SPR read-out of light chain tags; competing chain L1.
Assay [13] has as its target D3H44 light chain V133A_Q160K_T178R. As to the kind of experiment: LCCA: H1 co-expressed with L1 and L2, SPR read-out of light chain tags; competing chain L1.
Assay [14] concerns the target D3H44 light chain Q124E_V133W_Q160E_T180E. As to the kind of experiment: LCCA: H1 co-expressed with L1 and L2, SPR read-out of light chain tags; competing chain L2.
Assay [15] concerns the target D3H44 light chain Q38R. As to the kind of experiment: LCCA (SPR), competitor L1 Q38D.
The target in assay [16] is D3H44 light chain F98A. As to the kind of experiment: LCCA (SPR), competitor L1 Q38E.
Assay [17] concerns the target D3H44 light chain Q38R. As to the kind of experiment: LCCA (SPR), competitor L1 Q38E.
The target of assay [18] is D3H44 light chain Q38R. As to the kind of experiment: LCCA (SPR), competitor L2 Q38D.
Assay [19] has as its target D3H44 light chain Q38R. As to the kind of experiment: LCCA: H2 co-expressed with L1 and L2, SPR read-out of light chain tags; competing chain L2.

On to “D3H44 heavy chain (Fab format) D146G_Q179R”, for which, in [1], the H1 L1 of H1 L1:H1 L2 (screen) was determined as 86.7 and the H1 L1 of H1 L1:H1 L2 (verification) came to 97. In assay [2], this substance came in with an H1 L2 of H1 L1:H1 L2 (screen) of 1.4 and an H1 L2 of H1 L1:H1 L2 (verification) of 0.9. Further, in [3], the H1 Readout (H1-L2) was 1. In assay [4], the H1 Readout (H1-L1) amounted to 93.
Consider “D3H44 heavy chain (Fab format) D146G_S186R”, for which, in [5], the H1 Readout (H1-L2) is 1. Moreover, the H1 Readout (H1-L1) in [4] worked out at 84.
Take “D3H44 heavy chain (Fab format) K145E_D146G_Q179D_S188L”: the H2 Readout (H2-L2) in assay [6] was 74. Moreover, in [7], the H2 Readout (H2-L1) was determined as 2.
On to “D3H44 heavy chain (Fab format) K145T_Q179D_S188F”, for which, in [8], the H2 L1 of H2 L2:H2 L1 (screen) amounted to 1.5 and the H2 L1 of H2 L2:H2 L1 (verification) came to 11.5. In [9], this substance gave an H2 L2 of H2 L2:H2 L1 (screen) of 87.3 and an H2 L2 of H2 L2:H2 L1 (verification) of 83.2. For the same substance, the H2 Readout (H2-L2) in assay [10] was 87. For the same substance, the H2 Readout (H2-L1) in assay [11] was found to be 14.
Regarding “D3H44 heavy chain (Fab format) K145T_Q179D_S188L”, in assay [1], the H2 L1 of H2 L2:H2 L1 (screen) was 7.2 and the H2 L1 of H2 L2:H2 L1 (verification) came to 20. In assay [2], this substance gave an H2 L2 of H2 L2:H2 L1 (screen) of 71 and an H2 L2 of H2 L2:H2 L1 (verification) of 74.3. The H2 Readout (H2-L2) in assay [12] stood at 83. Besides, the H2 Readout (H2-L1) in assay [7] came out at 24.
Consider “D3H44 heavy chain (Fab format) L143A_D144G_Q179R”, for which, in assay [8], the H1 L1 of H1 L1:H1 L2 (screen) was 97.4 and the H1 L1 of H1 L1:H1 L2 (verification) came out at 93.6. In addition, in assay [9], the H1 L2 of H1 L1:H1 L2 (screen) turned out to be 0.4 and the H1 L2 of H1 L1:H1 L2 (verification) was found to be 0.6. Further, the H1 Readout (H1-L2) in [13] turned out to be 1. In addition, the H1 Readout (H1-L1) in assay [14] was determined as 104.
For D3H44 heavy chain (Fab format) Q39R, the values for the H1 L2 of H1 L1:H1 L2 (screen) in assay [15], in [16] and in assay [17] were 10.8, 4.3 and 22.7, respectively. The values for the H1 L2 of H1 L1:H1 L2 (verification) in assay [16] and in assay [17] were 4 and 8.4, respectively. This substance also showed an H2 L1 of H2 L2:H2 L1 (verification) in [18] of 11.1. Besides, in assay [19], the H2 Readout (H2-L1) was found to be 1.

The record behind these values is patent US20190085055A1.
